# Source: patent publication US7049079B1, “Coupling factor 6 inhibitor and potentiator and use thereof” (Daiichi Suntory Pharma Co.,Ltd., priority 1999, dated 2006)
# B1: rCF6: rat coupling factor 6, a 76 amino acid subunit of H+ ATP synthase (SEQ ID NO:2), recombinantly produced (protein)
# chain: NKELDPVQKLFLDKIREYKAKRLASGGPVDTGPEYQQEVDRELFKLKQMYGKGEMDKFPTFNFEDPKFEVLDKPQS
# modifications: Rat
# Columns and labels:
# [1] = system: release of arachidonic acid from HUVEC (PLA2); assay: Release of [3H]-labeled arachidonic acid from HUVEC; type: cell-based, human; details: for inhibition of release of arachidonic acid from HUVEC by PLA2 inhibitors: 40 μM AACOCF3, 1 μM OPC, 1 μM BEL
# Experimental: HUVEC were cultured for 24 hours in the presence of [^3H]-labeled arachidonic acid. Then the medium was replaced by DMEM and the culture was continued in the presence of […] of CF6 at 37° C. for an additional 30 minutes. Then the release of the [^3H]-labeled arachidonic acid into the liquid culture was examined. […] The same test was carried out in the presence of 1 μM of bradykinin.
# Next, the effects of a cPLA2 inhibitor (40 μM of AACOCF3: arachidonic acid […]), an sPLA2 inhibitor (1 μM of OPC; oleyloxyethylphosphorylcholine) and an iPLA2 inhibitor (1 μM of BEL: […]) of inhibiting the release of arachidonic acid form HUVEC were examined. […] Namely, the PLA2 participating in the release of arachidonic acid is cPLA2 (FIGS. 20 and 21).
# [2] = system: rats with normal blood pressure (WKY); assay: Arterial blood pressure of anesthetized WKY, measured in the open manner from the carotid artery; type: in vivo, rat; details: WKY 15 weeks of age; rCF6 0.3, 1.0, 3.0 μg/kg bolus into femoral vein
# Experimental: (§1) Blood pressure was measured in the open manner by inserting catheters directly into the aorta of rats anesthetized with 75 mg/kg of ketamine and 15 mg/kg of xylazine hydrochloride. Namely, two polyethylene catheters filled with physiological saline containing 20 U/ml of heparin were inserted respectively into the left carotid artery and the left femoral vein. Then the catheter inserted into the left carotid artery was connected to a pressure detector (Carrier Amplifier AP-601G, Nihon Kohden Co.). Each sample was dissolved in 200 μL of physiological saline and then administered via the vena cava.
# (§2) SHR and WKY each 16 weeks of age were anesthetized and the anti-rCF6 antibody (0.3, 1.0 and 3.0 μg/kg) was administered by bolus injection into the femoral vein. Then the arterial blood pressure was measured in the open manner from the carotid artery.
# (§3) Effects of the anti-rCF6 antibody on the effect of bradykinin of lowering rat blood pressure were examined. SHR and WKY each 16 weeks of age were anesthetized and bradykinin (0.3, 1.0 and 3.0 μg/kg) was cumulatively administered by bolus injection into the femoral vein. Then the arterial blood pressure was measured in the open manner from the carotid artery. […]
# (§4) Effects of rCF6 on rat blood pressure were examined. […] Then the arterial blood pressure was measured in an open manner from the carotid artery.
# [3] = system: PGI2 production of human umbilical venal endothelial cells (HUVEC); assay: Inhibition of PGI2 production (6-keto-PGF1α secreted into the medium) in HUVEC; type: cell-based
# Experimental: The activity of inhibiting the PGI2 production was evaluated by measuring the stable metabolite of PGI2 (6-keto-PGF1α) secreted into the medium of smooth muscle cells collected from SHR mesenteric artery or human umbilical venal endothelial cells (HUVEC). Namely, the smooth muscle cells collected from SHR mesenteric artery were subcultured in a Dulbecco's modified Eagle medium (DMEM) containing 10% (v/v) of fetal calf serum until these cells attained the confluent state. HUVEC were proliferated in a synthetic medium (HuMedia, Kurabo Industries) containing 2% (v/v) of fetal calf serum, 10 ng/ml of EGF, 5 ng/ml of bFGF, 1 μg/ml of hydrocortisone and 10 μg/ml of heparin. The smooth muscle cells collected from SHR mesenteric artery or HUVEC were incubated for 30 minutes in the DMEM medium containing the sample to be analyzed and 6-keto-PGF1α secreted into the medium during the incubation period was determined.
# HUVEC were cultured at 37° C. for 30 minutes in the DMEM containing 1, 10 and 100 nM of rCF6 prepared in Referential Example 2 and thus the inhibition of the PGI2 production by CF6 was examined. The production of PGI2 was measured with the guidance of the amount of 6-keto-PGF1α, which is a stable metabolite of PGI2, secreted into the medium. […] The same test was carried out in the presence of 1 μM of bradykinin.
# Further, 10 nM of CF6 inhibited the increase in the PGI2 production due to 2 μg/ml of ionomycin but not the increase therein due to 10 ng/ml of arachidonic acid and 10 ng/ml of PGH2.
# [4] = system: spontaneously hypertensive rats (SHR); assay: Arterial blood pressure of anesthetized SHR, measured in the open manner from the carotid artery; type: in vivo, rat; details: SHR 15 weeks of age; rCF6 0.3, 1.0, 3.0 μg/kg bolus into femoral vein
# Experimental: as §1, §2, §3, §4
molecule,measurement,setting,value
"CCCCC/C=C\C/C=C\C/C=C\C/C=C\CCCC(=O)C(F)(F)F [AACOCF3, arachidonic acid 3-fluoromethyl ketone]",inhibition of release of arachidonic acid from HUVEC by PLA2 inhibitors,[1],inhibited the release of arachidonic acid
"CCCCCCCC/C=C\CCCCCCCCOCCOP(=O)([O-])OCC[N+](C)(C)C [OPC, oleyloxyethylphosphorylcholine]",inhibition of release of arachidonic acid from HUVEC by PLA2 inhibitors,[1],cPLA2 inhibitor alone inhibited
"O=C1O/C(=C/Br)CCC1c1cccc2ccccc12 (stereo not drawn) [BEL, bromoenolcholine]",inhibition of release of arachidonic acid from HUVEC by PLA2 inhibitors,[1],cPLA2 inhibitor alone inhibited
B1,average arterial blood pressure,[2],dose-dependently increased
same,release of [3H]-labeled arachidonic acid,"[1]; HUVEC, 1, 10 and 100 mM CF6, 37° C., 30 minutes",dose-dependently inhibited
same,bradykinin-promoted release of [3H]-labeled arachidonic acid,"[1]; HUVEC, CF6 1, 10 and 100 mM, in the presence of 1 μM bradykinin",dose-dependently inhibited
same,increase in PGI2 production due to PGH2,"[3]; 10 nM CF6, 10 ng/ml PGH2",not
same,increase in PGI2 production due to arachidonic acid,"[3]; 10 nM CF6, 10 ng/ml arachidonic acid",not
same,increase in PGI2 production due to ionomycin,"[3]; 10 nM CF6, 2 μg/ml ionomycin",inhibited
same,PGI2 production (6-keto-PGF1α),"[3]; HUVEC, 1, 10 and 100 nM rCF6, 37° C., 30 minutes",dose-dependently inhibited
same,increase in PGI2 production due to bradykinin,"[3]; HUVEC, 1, 10 and 100 nM rCF6, in the presence of 1 μM bradykinin",dose-independently inhibited
same,average arterial blood pressure,[4],dose-dependently increased
